Results reported in publication PMC8017934.
Values joined by “and” are separate entries in the source; they are usually repeats but may differ in a detail not shown here. Equal values may be shown once.

Legend:
[1] = target: human 40S ribosomal subunit with the ybbR tag on RACK1, biotinylated or Cy5-labelled (human) (UniProt P63244)
[2] = target: human 40S ribosomal subunit with the ybbR tag on uS19, Cy3-labelled (human (endogenous in HEK293T)) (UniProt P62841)

Substance	Kd [1] [µM]	fraction of IRES–40S complexes bound at least once by NSP1 (≥∼5 s) [1] [%]	koff [1] [s⁻¹]	fraction of recruited 40S subunits with which NSP1 coassociated [2]
Bat-Hp-CoV NSP1 with an N-terminal ybbR tag, Cy3-labelled (natural protein)	< 0.001	89	< 0.002	
SARS-CoV-2 NSP1 with an N-terminal ybbR tag, fluorescently labelled (from UniProt P0DTD1 1-180) (natural protein)				57% and 60%
SARS-CoV-2 NSP1(KH164-165AA) with an N-terminal ybbR tag, Cy3-labelled (from UniProt P0DTD1 1-180) (natural protein)	> 0.35	9	0.14	
